{
  "source": "the domain aggregation screens of Martell et al. (2025)",
  "data": [
    {"experiment": "soluble fraction after stress (log2 fold change); higher = more stays soluble; pooled small domains, quantitative proteomics", "details": "stress: 50 degC", "procedure,_shortened": "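The stress applied to every library was 50°C. These custom libraries of small protein domains were pooled and measured at high throughput with quantitative proteomics as the read-out. Aggregation propensity is expressed as the base-two logarithm of the fold change in how much of each protein remains soluble. The higher the value, the more of that protein stays in solution.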", "values": [
      {"sequence": "HMQQVIEGLDSDRDFITVPEAIALFAVGRQTLYHYIRSGKIPSVNLGQRLTRLSKKQLGELFPLR", "soluble fraction (log2)": -1.63},
      {"sequence": "HMQRGRTFSIVLNWKGRLLSTQMFFPQFTRPTKEQVTFEINKVYPGAMVYYYNPIEKDPSQPLV", "soluble fraction (log2)": -1.07},
      {"sequence": "HMQRLSRREIEVLHWIAEGKSDWQIGQILSISAKTVNYHTENLKRKFGVATRMQAVVSAIKQGAFVPGE", "soluble fraction (log2)": -4.43},
      {"sequence": "HMQRVSDKVAAQLRVLVQEQQLKPGDRLPAERALAVQLGVSRTALREAIAQLASQGLLTARVGGGTYVAEP", "soluble fraction (log2)": -0.307},
      {"sequence": "HMQRYVVDENLKLDKKDINHIINVMRLNVNDQIKLINNGTIYDAIITKIEKNNVLYEIIKKEESK", "soluble fraction (log2)": 0.0274},
      {"sequence": "HMQSANQLIKLSRKRKGLTQQELADQAGVSLRTVQRIEKGTEEISGFSLKQISQILEIPLEQLIM", "soluble fraction (log2)": -0.146},
      {"sequence": "HMQSLDGPSRAAIVLMAIGPDVAGELIKSFSPAEAQKVSSLLATVRSLDREVMIEVLDSFKNITEH", "soluble fraction (log2)": -0.323},
      {"sequence": "HMQSLPFSFAKRHGVLLKSINHLHGEAVYRIGANPLSLSEVQRYAGVPLKLSSITVEKFDRLLQETYEHD", "soluble fraction (log2)": -1.14},
      {"sequence": "HMQSLSDQVFFYLKERIINNEMVPGSIISIEKLTSEFGISNTPVREAIVRLAGLDLVTIHRNKNITVS", "soluble fraction (log2)": -2.39},
      {"sequence": "HMQSMSADDWSEKARVLMSAGIIVMGQEAKEKILNLKSLVPLIEAASASNVSMIDSRTFDELLMIIP", "soluble fraction (log2)": -1.26},
      {"sequence": "HMQSREISYSEFVTAVEAGDVRNVTLDGEQVRFRRADGSDYVTIRPEDAEVTKLLMANDIPVRAEP", "soluble fraction (log2)": 0.169},
      {"sequence": "HMQSRRTPASLVERVRQLNGQYQDKEIAELLNREGIKTAHGNEFNAKRIEMIRRHNGISKHSAQ", "soluble fraction (log2)": 0.174},
      {"sequence": "HMQSSTAISFNQFQKSWLSNNIKSFQLGEDKMTVRGSLKNGTQYETIVPSERLFQFIGQHPKDGQVQEMY", "soluble fraction (log2)": 0.042},
      {"sequence": "HMQSTEQVSVTVTIPPGGELRIDSDTFRVLLNGENVLDKQSGDWLMLSRDLLYLDIESAIGNGLSGNLIYT", "soluble fraction (log2)": 0.0974},
      {"sequence": "HMQSVEELLDAIGDERLLHILLEADRKTLQIVVLKMMGYAPKEIGSHIGMPEQTVYTKLRRLREKIKKI", "soluble fraction (log2)": -1.49},
      {"sequence": "HMQSYHVGDKVTIKNSASHWATGQSIYNGVKGHTYKIIQTNGHKLLLDQVISWINDGDVYKAGS", "soluble fraction (log2)": -0.492},
      {"sequence": "HMQSYSTIIGVIELRLSGIGYRTTKARYGIGNSTVTLIMNRFKETGFTLDDLKTMEPTKVEALFYPP", "soluble fraction (log2)": -0.873},
      {"sequence": "HMQSYSYYDFQKALQNKTVESVIIEPDKTVPTGTLQIQLKGDTKEELNVSDVTEVEELLQSYDVDYKLRSV", "soluble fraction (log2)": 0.131},
      {"sequence": "HMQTASVRFADGQLEVKQKGLQRVSVYSLNGMTVANKAVQGQDYVTISLPRAAYIVKITTQNGSFTKVI", "soluble fraction (log2)": -0.207},
      {"sequence": "HMQTGRREALEAQLRETGGEAMLARLREIDPEAAARLHPADEKRVIRALEVYEETGKTITQHNLETKAVPP", "soluble fraction (log2)": 0.239},
      {"sequence": "HMQTKEVDYGTFMSMIDEKNIGTVEIGDSQIVFTDKDNKNLYETGVMNDPDLAQRLHDAGATFSS", "soluble fraction (log2)": 0.201},
      {"sequence": "HMQTLQTTSLRVSENQLFILDQQALPQEKRWLAADNVALLVDHIHTLRVRGAPLIGLSASLLLALLAGRLT", "soluble fraction (log2)": -0.0766},
      {"sequence": "HMQTMNKTNISNFEKYLNSGDVSEVIVVRNKSSVRVTLTPEALRSSEHQAVVGKNILGQENIKGPHYQFEV", "soluble fraction (log2)": -0.0672},
      {"sequence": "HMQTPPGRYRHYKGGLYEVIATARHSETLEPMTVYRALYGEQGLWVRPAAMFAEDITLEGVRQPRFARI", "soluble fraction (log2)": -1.91},
      {"sequence": "HMQTRIDISDAVLQWVVRKTQFAALPPKAAAHLTKWVRGEKKPTFNQLEEVSKATGIPLGYFFLQQPPHE", "soluble fraction (log2)": -0.776},
      {"sequence": "HMQTTEDMEINAKVDEYLREMYLWNDEYKTLNLDHNKGYEDFFYDALGSMTTNTLDKKTYVGSDGKTYYNL", "soluble fraction (log2)": -0.248},
      {"sequence": "HMQTYTYYIAKNDISIGQKITPDMLIEKQVNLGDSKDRYLSREQLETGKYIAVRQIPAGELISSASANE", "soluble fraction (log2)": 0.157},
      {"sequence": "HMQVAPQVERLLRVMGNETLSLSDIMGRMGLSDKKNFRESYLVPALRSAVIEMTIPDKPNSSLQKYRRIHE", "soluble fraction (log2)": -0.176},
      {"sequence": "HMQVEEKNKKIELYIEGKIKELESNLMYVPNENKKKLLMAFMNRNEDIEIIKTKIDTIFNKSVAAYKENM", "soluble fraction (log2)": 0.237},
      {"sequence": "HMQVIDNHWRPSRDALDILLRDGISEHFIEDAIPEFILYWRERGTQDSNWNSRFLQHIRLQWARYTNAV", "soluble fraction (log2)": -0.433},
      {"sequence": "HMQVPDLYRTLGVGRDATTEAIEAAYVGWQARLSAGEPISTQEWERLRYAHEVLSNPQRRSLYDSLVAET", "soluble fraction (log2)": 0.0709},
      {"sequence": "HMQVPVNVSMEILDWVIAHIKIDALPNQIREYLNLWVNGEKEPTFNQVEKVSKATGIPLGYFFLQTPPIED", "soluble fraction (log2)": -1.66},
      {"sequence": "HMQVQHVWNRLKRPNGDVLYEINRDHPLVSASLDAAADRGAIETLLRQIEQSLPVNQLYVDMNADEHFE", "soluble fraction (log2)": -0.301},
      {"sequence": "HMQVSDAAQLAEVVKTVLAENPAAVGDYRKGKKAAIGFLLGQVMRHMRGTANPAVARQLLEQALEDE", "soluble fraction (log2)": 0.0337},
      {"sequence": "HMQVSDLSAIDSLIDKVLSEQQAAVQDFRSGQGKAMGFLIGKVMQASDGKANPKVIRELMGKKLA", "soluble fraction (log2)": 0.159},
      {"sequence": "HMQVSIGERVKLARMSAGLNQRQLGKEMGMSAMAISKYETGEVVPNSRVLIQLSQTLHVPLDFFFRS", "soluble fraction (log2)": -2.69},
      {"sequence": "HMQVTDADFDQIRLAVLSQLKQNSLTVAELLKIIPFKEQKVMPVIRFLIDNRVLEHGTDMKLTVGNSVK", "soluble fraction (log2)": 0.0195},
      {"sequence": "HMQVTIGADLAEHAARLDVQISDVVKLIKSGVSEGEIKVGLTKLETRLAHPELALVENKLAYLKALIAES", "soluble fraction (log2)": -0.243},
      {"sequence": "HMQYALEDDLDSAIKLLTGKGLSGTVAWGWSDTYINVGKKSYSMEFIAKMLLRLGEGSRVTIQVDPA", "soluble fraction (log2)": -4.68},
      {"sequence": "HMQYIINFEYSGMLLREYLRGVLGLSHGTLTALKKDPLGILLNGEHATVRAVLHAGDRLTLALE", "soluble fraction (log2)": -3.05},
      {"sequence": "HMQYKVMDVTVDGNPVIEFQNLNSKIKWIENNPDAIIQNIKTSSFEADQKRIVGTSRGPFWIVIKPDF", "soluble fraction (log2)": -0.144},
      {"sequence": "HMQYRQRRGLERMELILDAATRVVAEVGYERTTTNAIATRAGISPGSLYQYFSSKEDIASALWERYAE", "soluble fraction (log2)": -0.23},
      {"sequence": "HMRAGEAVTGQVIGVKEDEIILSIAGSKSEGIITRSEFTNEPNVDLTTKVSVGDELEVKVLKVNDGEGMAS", "soluble fraction (log2)": -0.171},
      {"sequence": "HMRAKPLILLDGREISAEELFSLDKNSIKSIEVLKDETALAQYGEKAKNGVVLVVTKSAAAS", "soluble fraction (log2)": 0.246},
      {"sequence": "HMRALPAGQADLLKWIDGVTPRSVEELELLSGLEPGRLSELLMELELAGIVRAVAGDSYIKISKS", "soluble fraction (log2)": -0.462},
      {"sequence": "HMRAPETEITYTEFKTALRAGQIETATVGIEQISGKLTDGDLYRTVRVDDPDLLKDLEANHVNAAGRV", "soluble fraction (log2)": 0.104},
      {"sequence": "HMRASQGRNELILSLLRGHELSILELLEGLEKQGVRVARPTLTKDLNELVSRGSVEATAPPRSKNRTYRIP", "soluble fraction (log2)": -0.612},
      {"sequence": "HMRDFLMDSTKNKLSKDQVQLSRIFLWFGNDFGSKAERLEFISRYSGMDFNQPKIDYLTYDWSLNQ", "soluble fraction (log2)": 0.278},
      {"sequence": "HMRDLITYVVQINGKLRGKLEVAPDTDPEELKALALEVENVKRSLEGWVVKKVIVVPGKMVSIAAG", "soluble fraction (log2)": -0.193},
      {"sequence": "HMRDLLPHFQRELQFLQTHRNEFAAAYPELGGRLATASDLLDDPHVERMVQSFALLAARVHKRLDDDF", "soluble fraction (log2)": 0.206},
      {"sequence": "HMRDLTARQQQILALIRQHIADTGFPPTRAEIAAQLGFRSPNAAEEHLKALARKGVIELASGASRGIRLK", "soluble fraction (log2)": -0.16},
      {"sequence": "HMRDPFDALSARERAVASLVQRGLRNKEVASELGLTEGTVKVHLHKVFDKLGIRGRTELILLAQER", "soluble fraction (log2)": -0.79},
      {"sequence": "HMRDQAIDIYKTVHSVAEPYKEVFLLRVLGELSFKEISHIFGKSESWAKVTFFRAKIKVVEKREES", "soluble fraction (log2)": -3.74},
      {"sequence": "HMRDQQHNIYLLEKAKRLYEEFLGDNRHIIAAEMARFEAVLETQDAIIIQRAQQQFSEFLNRFDG", "soluble fraction (log2)": -1.63},
      {"sequence": "HMRDRYEYLKELRLYLSPLGRTEEDRVIEYYAELIGDKIESGIPENGVLSQLGTPRELADKILAETQEY", "soluble fraction (log2)": -0.35},
      {"sequence": "HMRDSLVGLEGVVVREVDDETLAGKVQIGSMEWSARSESGRIPAGRRVVVLRAEGVHIVVKEV", "soluble fraction (log2)": -0.205},
      {"sequence": "HMRDSWNEATKEKRYTEAYDALNSALKKTPATPHALSDALWIARELGRTNEEVQRLEWRLYALLTWIS", "soluble fraction (log2)": 0.0708},
      {"sequence": "HMRDTDAEVTYKLNEPFKTMGSVSVEGKVLEFAGSKWFARAAEFASNTEVYPLAKNRVRLTFTFHGLTAP", "soluble fraction (log2)": 0.105},
      {"sequence": "HMREEFIGVLDGKVAIFHGRPERKGPLKEVTAIEVDKLPRQEQADLEKGLVIRTDKEKLQLMEGLAALLD", "soluble fraction (log2)": 0.289},
      {"sequence": "HMREELIALYRAIARLSEDEQELLNLFYFARRPLSEIAQLTGMTPGAAKTRLYRARRHLRREMEEDGYG", "soluble fraction (log2)": -0.986},
      {"sequence": "HMREGLRHLRVRMPGGAGETLAMLYREGEVLSQSSDGAFIEVEIRVAQSVAGRLLQMPGVQLTEEVG", "soluble fraction (log2)": -0.21},
      {"sequence": "HMREGNELLGKEGVTVSELRPAGIALIDGRRTDVVTDGEFVAVDQAVEVVEVSGNRVVVRRS", "soluble fraction (log2)": 0.0948},
      {"sequence": "HMREIDIWVAEDADSQRIDKYLSMVVEDLSRSRIASLIEGGSILVNGEVIRAKYKVKPADHITAAFEDEM", "soluble fraction (log2)": -0.72},
      {"sequence": "HMREIKSNEILLEVENLKNSEFFNDINFNIKKGEIVGFSGLIGAGRTELALTLFGYYKAESGKVIQ", "soluble fraction (log2)": 0.061},
      {"sequence": "HMREIRIIAEEGHGRLDAFLAGREELGLSRSRIKGLIEEGQVTLNGAVPKAKQPVSPGDEIVVSVPD", "soluble fraction (log2)": 0.141},
      {"sequence": "HMREKMKGKILDYNFQESRGIISADDGNRYSFENSQWKGTQSPKVNQIVDFEIDGQNAKDIYLDK", "soluble fraction (log2)": 0.162},
      {"sequence": "HMRESLSEAERHPRYLEGEDVVRMFLLMGDLSRVEAEVIALQWNAQEADRVGLPQDAKVFRTRAR", "soluble fraction (log2)": -0.511},
      {"sequence": "HMREVDKRYYKINIAGTDRIFTNVYRVGDRYSAYEADKNGKPGKFLYSLSQAEIDRAVISGSFDFK", "soluble fraction (log2)": 0.105}
    ]}
  ]
}
